Ends that are not written are not given here. HPMA copolymer = HPMA copolymer made by RAFT copolymerization of HPMA with N-(3-aminopropyl)methacrylamide (APMA), bearing maleimide groups for grafting
Test: Pharmacokinetics at each cycle of a four-round treatment regimen
Assay type: in vivo, female mice
Design: PK curves: unit not given here

## P-CM2-Cy3: Cy3-labeled P-CM2 (C(HPMA copolymer)YGGEVSALEKEVSALEKKNSALEKEVSALEKEVSALEK; also: Cy3 label on conjugate, position not given here)
Round 1, Time 0.041667 Day, replicate 1
  PK curves: 163.747
Round 1, Time 0.041667 Day, replicate 2
  PK curves: 180.755
Round 1, Time 0.041667 Day, replicate 3
  PK curves: 215.82
Round 1, Time 0.041667 Day, replicate 4
  PK curves: 227.965
Round 1, Time 0.041667 Day, replicate 5
  PK curves: 272.14
Round 1, Time 0.083333 Day, replicate 1
  PK curves: 152.881
Round 1, Time 0.083333 Day, replicate 2
  PK curves: 155.096
Round 1, Time 0.083333 Day, replicate 3
  PK curves: 158.378
Round 1, Time 0.083333 Day, replicate 4
  PK curves: 173.813
Round 1, Time 0.083333 Day, replicate 5
  PK curves: 181.609
Round 1, Time 0.166667 Day, replicate 1
  PK curves: 117.124
Round 1, Time 0.166667 Day, replicate 2
  PK curves: 133.5
Round 1, Time 0.166667 Day, replicate 3
  PK curves: 138.292
Round 1, Time 0.166667 Day, replicate 4
  PK curves: 141.138
Round 1, Time 0.166667 Day, replicate 5
  PK curves: 149.467
Round 1, Time 0.25 Day, replicate 1
  PK curves: 99.512
Round 1, Time 0.25 Day, replicate 2
  PK curves: 115.311
Round 1, Time 0.25 Day, replicate 3
  PK curves: 115.69
Round 1, Time 0.25 Day, replicate 4
  PK curves: 124.268
Round 1, Time 0.25 Day, replicate 5
  PK curves: 126.538
Round 1, Time 0.333333 Day, replicate 1
  PK curves: 72.638
Round 1, Time 0.333333 Day, replicate 2
  PK curves: 80.332
Round 1, Time 0.333333 Day, replicate 3
  PK curves: 81.864
Round 1, Time 0.333333 Day, replicate 4
  PK curves: 87.045
Round 1, Time 0.333333 Day, replicate 5
  PK curves: 96.736
Round 1, Time 0.5 Day, replicate 1
  PK curves: 53.965
Round 1, Time 0.5 Day, replicate 2
  PK curves: 58.639
Round 1, Time 0.5 Day, replicate 3
  PK curves: 59.336
Round 1, Time 0.5 Day, replicate 4
  PK curves: 66.884
Round 1, Time 0.5 Day, replicate 5
  PK curves: 78.186
Round 1, Time 1 Day, replicate 1
  PK curves: 21.997
Round 1, Time 1 Day, replicate 2
  PK curves: 25.01
Round 1, Time 1 Day, replicate 3
  PK curves: 29.67
Round 1, Time 1 Day, replicate 4
  PK curves: 31.811
Round 1, Time 1 Day, replicate 5
  PK curves: 36.626
Round 1, Time 2 Day, replicate 1
  PK curves: 11.902
Round 1, Time 2 Day, replicate 2
  PK curves: 17.163
Round 1, Time 2 Day, replicate 3
  PK curves: 19.932
Round 1, Time 2 Day, replicate 4
  PK curves: 21.481
Round 1, Time 2 Day, replicate 5
  PK curves: 24.221
Round 1, Time 3 Day, replicate 1
  PK curves: 3.355
Round 1, Time 3 Day, replicate 2
  PK curves: 5.764
Round 1, Time 3 Day, replicate 3
  PK curves: 7.718
Round 1, Time 3 Day, replicate 4
  PK curves: 11.103
Round 1, Time 3 Day, replicate 5
  PK curves: 11.877
Round 1, same
  AUC0-t: 2910.449 ± 479.173 ng·h/mL
  AUC0-∞: 3143.497 ± 607.036 ng·h/mL
  MRT0-t: 17.874 ± 1.409 h
  MRT0-∞: 23.669 ± 4.167 h
Round 1 of four-round Nanothread-1→Nanothread-2 regimen, blood fluorescence, DAS 2.0, mean ± SD, n = 5
  T1/2z: 19.104 ± 3.483 h
Round 2, Time 0.041667 Day, replicate 1
  PK curves: 166.289
Round 2, Time 0.041667 Day, replicate 2
  PK curves: 169.535
Round 2, Time 0.041667 Day, replicate 3
  PK curves: 192.765
Round 2, Time 0.041667 Day, replicate 4
  PK curves: 283.095
Round 2, Time 0.041667 Day, replicate 5
  PK curves: 308.888
Round 2, Time 0.083333 Day, replicate 1
  PK curves: 129.263
Round 2, Time 0.083333 Day, replicate 2
  PK curves: 143.311
Round 2, Time 0.083333 Day, replicate 3
  PK curves: 159.105
Round 2, Time 0.083333 Day, replicate 4
  PK curves: 167.258
Round 2, Time 0.083333 Day, replicate 5
  PK curves: 213.448
Round 2, Time 0.166667 Day, replicate 1
  PK curves: 118.029
Round 2, Time 0.166667 Day, replicate 2
  PK curves: 120.594
Round 2, Time 0.166667 Day, replicate 3
  PK curves: 139.935
Round 2, Time 0.166667 Day, replicate 4
  PK curves: 140.364
Round 2, Time 0.166667 Day, replicate 5
  PK curves: 140.694
Round 2, Time 0.25 Day, replicate 1
  PK curves: 88.6458
Round 2, Time 0.25 Day, replicate 2
  PK curves: 101.112
Round 2, Time 0.25 Day, replicate 3
  PK curves: 104.483
Round 2, Time 0.25 Day, replicate 4
  PK curves: 106.877
Round 2, Time 0.25 Day, replicate 5
  PK curves: 110.672
Round 2, Time 0.333333 Day, replicate 1
  PK curves: 69.5736
Round 2, Time 0.333333 Day, replicate 2
  PK curves: 78.4476
Round 2, Time 0.333333 Day, replicate 3
  PK curves: 88.3019
Round 2, Time 0.333333 Day, replicate 4
  PK curves: 89.2405
Round 2, Time 0.333333 Day, replicate 5
  PK curves: 90.1636
Round 2, Time 0.5 Day, replicate 1
  PK curves: 43.1833
Round 2, Time 0.5 Day, replicate 2
  PK curves: 45.6973
Round 2, Time 0.5 Day, replicate 3
  PK curves: 51.9942
Round 2, Time 0.5 Day, replicate 4
  PK curves: 68.9589
Round 2, Time 0.5 Day, replicate 5
  PK curves: 80.0862
Round 2, Time 1 Day, replicate 1
  PK curves: 16.0352
Round 2, Time 1 Day, replicate 2
  PK curves: 27.0822
Round 2, Time 1 Day, replicate 3
  PK curves: 31.0181
Round 2, Time 1 Day, replicate 4
  PK curves: 36.116
Round 2, Time 1 Day, replicate 5
  PK curves: 40.972
Round 2, Time 2 Day, replicate 1
  PK curves: 12.4543
Round 2, Time 2 Day, replicate 2
  PK curves: 13.9537
Round 2, Time 2 Day, replicate 3
  PK curves: 16.9804
Round 2, Time 2 Day, replicate 4
  PK curves: 22.3399
Round 2, Time 2 Day, replicate 5
  PK curves: 24.6061
Round 2, Time 3 Day, replicate 1
  PK curves: 4.968
Round 2, Time 3 Day, replicate 2
  PK curves: 5.058
Round 2, Time 3 Day, replicate 3
  PK curves: 5.667
Round 2, Time 3 Day, replicate 4
  PK curves: 9.298
Round 2, Time 3 Day, replicate 5
  PK curves: 13.6533
Round 2, same
  AUC0-t: 2845.842 ± 670.957 ng·h/mL
  AUC0-∞: 3070.777 ± 804.281 ng·h/mL
  MRT0-t: 17.76 ± 1.068 h
  MRT0-∞: 23.374 ± 3.332 h
  T1/2z: 18.965 ± 3.022 h

— publication PMC10980815, “Cell surface patching via CXCR4-targeted nanothreads for cancer metastasis inhibition” (Nature Communications, 2024)
